Consider one sequence from US20230184767.

This data set relates to infectious human adenovirus 2 (HAdV-2, whole virus) (Human adenovirus 2). Description: ELONA. Conditions: SELEX buffer 20 mM Tris, 100 mM NaCl, 2.5 mM MgCl2, pH 7.2, room temperature.

A word on the Kd: it is the equilibrium constant for the complex coming apart. Read a high Kd as weaker binding.

“GGCTGCAGCTGAAGCACTGGTTTTGAGTCAAACCCAGACGATGGA [Apt-HAdV]”: the Kd was 0.9 nM.
